Results published in article PMC3716775, “Interaction between Trehalose and MTHase from Sulfolobus solfataricus Studied by Theoretical Computation and Site-Directed Mutagenesis” (PLoS ONE, 2013).
Where a chain is given by its changes, count along the chain named. In names and notes the source's numbering stands.

B1: MTHase (maltooligosyltrehalose trehalohydrolase) from S. solfataricus ATCC 35092 (Saccharolobus solfataricus P2) (protein)
chain: MTFGYKLDEDGVTFNLWAPYQRKVKLKILNRGIYEMERDDKGYFTITLDNVRVGDRYKYILDDNSEVPDPASRYQPEGVHGYSEIISPDFEWDDENSVKVKREDLVIYELHIGTFTSEGTFEGVIKKLNYLKELGVTAIEIMPIAQFPGKKDWGYDGVYLYAVQNSYGGPSGFRKLVNEAHKLGLAVILDVVYNHVGPEGNYMVKLGPYFSEKYKTPWGLTFNFDDAGSDEVRKFILENVEYWINEFHVDGFRLDAVHAIIDNSPKHILEDIADVVHKYDKIVIAESDLNDPRVVNPKEKCGYNIDAQWVDDFHHAIHAFLTGERQGYYSDFGSIGDIVKSYKDVFIYDGKYSNFRRKTHGKSVGDLDGCKFVVYIQNHDQVGNRGGGERLIKLVDKESYKIAAALYILSPYIPMIFMGEEYGEENPFYYFSDFSDPKLIQGVREGRRRENGQETDPQSDCTFNDSKLSWKINDDILSFYKSLIKIRKEYGLACNRKLSVENGNYWLTVKGNGCLAVYVFSKSVIEMKYSGTLVLSSNSSFPSQITESKYELDKGFALYKL
notes: expressed from pET-15b-ΔH-treZ in E. coli BL21-CodonPlus (DE3)-RIL; heat treatment 80 °C, Q-Sepharose; docking model was the KM1 enzyme (PDB 1EH9), not the assayed protein
B2: MTHase (maltooligosyltrehalose trehalohydrolase) from S. solfataricus ATCC 35092 (Saccharolobus solfataricus P2; Y155A) (protein)
chain: B1 chain with Y155A
notes: as for B1
B3: MTHase (maltooligosyltrehalose trehalohydrolase) from S. solfataricus ATCC 35092 (Saccharolobus solfataricus P2; Y155F) (protein)
chain: B1 chain with Y155F
notes: as for B1
B4: MTHase (maltooligosyltrehalose trehalohydrolase) from S. solfataricus ATCC 35092 (Saccharolobus solfataricus P2; D156A) (protein)
chain: B1 chain with D156A
notes: as for B1
B5: MTHase (maltooligosyltrehalose trehalohydrolase) from S. solfataricus ATCC 35092 (Saccharolobus solfataricus P2; H195A) (protein)
chain: B1 chain with H195A
notes: as for B1
B6: MTHase (maltooligosyltrehalose trehalohydrolase) from S. solfataricus ATCC 35092 (Saccharolobus solfataricus P2; R447A) (protein)
chain: B1 chain with R447A
notes: as for B1
B7: MTHase (maltooligosyltrehalose trehalohydrolase) from S. solfataricus ATCC 35092 (Saccharolobus solfataricus P2; E450A) (protein)
chain: B1 chain with E450A
notes: as for B1

Each protein was assayed on OC[C@H]1O[C@H](O[C@H]2O[C@H](CO)[C@@H](O[C@H]3O[C@H](CO)[C@@H](O[C@H]4O[C@H](CO)[C@@H](O[C@H]5O[C@H](CO)[C@@H](O)[C@H](O)[C@H]5O)[C@H](O)[C@H]4O)[C@H](O)[C@H]3O)[C@H](O)[C@H]2O)[C@H](O)[C@@H](O)[C@@H]1O (assay: initial rates of G3T hydrolysis, Michaelis-Menten fit). Conditions: 50 mM citrate-phosphate pH 5, 60 °C.
Format: biochemical, Saccharolobus solfataricus
From the text: initial rates of […] hydrolysis, Michaelis-Menten fit on […] (maltooligosyltrehalose trehalohydrolase) from S. solfataricus ATCC 35092
B1 showed a Km of 5.22 ± 0.59 mM, a kcat of 947 ± 40 s⁻¹ and a kcat/Km of 182000 ± 14000 M⁻¹ s⁻¹. B2 gave a Km of 39.2 ± 2.8 mM, a kcat of 44.8 ± 1.7 s⁻¹ and a kcat/Km of 1140 ± 40 M⁻¹ s⁻¹. B3 was tested, and the Km was 5.02 ± 0.34 mM, the kcat was 27.8 ± 0.7 s⁻¹ and the kcat/Km was 5540 ± 250 M⁻¹ s⁻¹. In the case of B4, the Km is reported as 12.9 ± 2.3 mM, the kcat is reported as 608 ± 62 s⁻¹ and the kcat/Km is reported as 47300 ± 3700 M⁻¹ s⁻¹. Work on B5 yielded a Km of 4.18 ± 0.31 mM, a kcat of 2.15 ± 0.05 s⁻¹ and a kcat/Km of 510 ± 30 M⁻¹ s⁻¹. Work on B6 yielded a Km of 10.7 ± 1.3 mM, a kcat of 303 ± 16 s⁻¹ and a kcat/Km of 28200 ± 2000 M⁻¹ s⁻¹. Work on B7 yielded a Km of 7.48 ± 0.70 mM, a kcat of 1070 ± 50 s⁻¹ and a kcat/Km of 144000 ± 8000 M⁻¹ s⁻¹.
